# Data from CN117990807A (BEIJING DONGFANG BIOTECH CO LTD; BEIJING JINGYI TAIXIANG …, dated 2024).
# T1: 鼠TSLP-His (mouse, UniProt Q9JIE6 20-140)
# T1 construct: Bought protein; also called TSLP(Mouse); not shown: His tag
# T1 sequence (looked up): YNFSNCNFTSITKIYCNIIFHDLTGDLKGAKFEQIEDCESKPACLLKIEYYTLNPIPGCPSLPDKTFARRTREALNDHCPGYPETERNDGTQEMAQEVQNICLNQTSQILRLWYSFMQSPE
# Experiments:
# 鼠TSLP-His = molecular target: T1, 鼠TSLP-His; test: ELISA, mouse TSLP-His coated
# 猴TSLP-His (食蟹猴TSLP) = molecular target: T2, 猴TSLP-His (食蟹猴TSLP) (cynomolgus monkey, UniProt A0A7N9CAT7 29-159); test: ELISA, cynomolgus TSLP-His coated, goat anti-human IgG-HRP
# T2 construct: Bought protein; also called TSLP(Cynomolgus); not shown: His tag
# 人TSLP-His [1] = molecular target: T3, 人TSLP-His (human, UniProt Q969D9 29-159, limits assumed); test: competition ELISA: CRLF2-Fc coated, TSLP-His 10μg/ml plus antibody dilutions, anti-His-HRP
# T3 construct: also called TSLP(Human); not shown: His tag
# [2] = molecular target: T4, TSLP (人TSLP, thymic stromal lymphopoietin) (human, UniProt Q969D9 29-159, limits assumed); test: ELISA, TSLP coated, goat anti-mouse IgG-HRP
# T4 construct: also called TSLP抗原; 抗原TSLP
# 人TSLP-His [3] = molecular target: T3, 人TSLP-His; test: ELISA, TSLP-His coated, goat anti-human IgG-HRP
# T2 sequence (A0A7N9CAT7 entry or part of it): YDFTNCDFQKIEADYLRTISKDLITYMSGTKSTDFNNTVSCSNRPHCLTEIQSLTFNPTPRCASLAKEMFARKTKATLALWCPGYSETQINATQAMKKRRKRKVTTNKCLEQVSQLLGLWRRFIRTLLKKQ
Binder,binding result (鼠TSLP-His),EC50 (猴TSLP-His (食蟹猴TSLP)) [µg/mL],IC50 (人TSLP-His [1]) [µg/mL],EC50 [2] [µg/mL],EC50 (人TSLP-His [3]) [µg/mL]
"人源化抗TSLP单克隆抗体HA-Ⅱ (antibody, human IgG1, kappa, L234A L235A, V domains shown, Humanized from MA-Ⅰ) VH: QVQLVQSGAEVKKPGASVKVSCKASGYTFTSYWMHWVRQAPGQGLEWIGLIDPSDSDTTYNQKFKGRATLTVDTSTSTAYMELSSLRSEDTAVYYCSRSLDGYFDHWGQGTLVTVSS VL: DIVMTQSPSSLSASVGDRVTITCRASENIYSYLAWYQQKPGKAPKLLVYNARTLAEGVPSRFSGSGSGTDFTLTISSLQPEDFATYYCQHHYGTPWTFGGGTKVEIKR",no binding (tested: 16μg/ml),0.0508,–,–,–
"MA-Ⅲ鼠源抗TSLP单克隆抗体 (murine IgG1/Ck) (antibody, V domains shown) VH: QVQLQQPGAELVKPGASVKMSCKASGYTFTSYWMHWVKQRPGQGLEWIGVIDPSDSDTTYNQKFKGKATLTVDTSSSTVYMQLSSLTSEDSAVYYCTRSLDGYFDHWGQGTLVTVSA VL: DIVMTQSPASLSASVGETVTITCRASGNIHNYLAWYQQKQGKSPQLLVYNAKTLADGVPSRFSGSGSGTQYSLKINSLQPEDFGSYYCQHFWSTPWTFGGGTKLEIKA",–,–,2.4,0.00198,–
"MA-Ⅳ鼠源抗TSLP单克隆抗体 (murine IgG1/Ck) (antibody, V domains shown) VH: QVKLEQSGAELVKPGASVKMSCKASGYTFTSYWMHWVKQRPGQGLEWIGVIDPSDSDTTYNQKFKGKATLTVDTSSSTAYMQLSSLTSEDSAVYYCTRSLDGYFDHWGQGTLVTVSA VL: DIVITQTPASLSASVGETVTITCRASGNIHNYLAWYQQKQGKSPQLLVYNTKTLADGVPSRFSGSGSGTQYSLKINSLQPEDFGSYYCQHFWSTPYTFGGGTKLEIKA",–,–,11.8,0.00557,–
"MA-Ⅰ鼠源抗TSLP单克隆抗体 (murine IgG1/Ck) (antibody, also called MA-I) heavy: QVQLEQSGAELVKPGASVKMSCKASGYTFTSYWMHWVKQRPGQGLEWIGLIDPSDSDTTYNQKFKGKATLTVDTSSSTAYMQLGSLTSEDSAVYYCSRSLDGYFDHWGQGTLVTVSAAKTTPPSVYPLAPGSAAQTNSMVTLGCLVKGYFPEPVTVTWNSGSLSSGVHTFPAVLQSDLYTLSSSVTVPSSTWPSETVTCNVAHPASSTKVDKKIVPRDCGCKPCICTVPEVSSVFIFPPKPKDVLTITLTPKVTCVVVDISKDDPEVQFSWFVDDVEVHTAQTQPREEQFNSTFRSVSELPIMHQDWLNGKEFKCRVNSAAFPAPIEKTISKTKGRPKAPQVYTIPPPKEQMAKDKVSLTCMITDFFPEDITVEWQWNGQPAENYKNTQPIMDTDGSYFVYSKLNVQKSNWEAGNTFTCSVLHEGLHNHHTEKSLSHSPG light: DIVMTQSPASLSASVGETVTITCRASENIYSYLAWYQQKQGKSPQLLVYNARTLAEGVPSRFSGSGSGTQFSLKINSLQPEDFGSFYCQHHYGTPWTFGGGTKLEIKADAAPTVSIFPPSSEQLTSGGASVVCFLNNFYPKDINVKWKIDGSERQNGVLNSWTDQDSKDSTYSMSSTLTLTKDEYERHNSYTCEATHKTSTSPIVKSFNRNEC",–,–,1.52,0.0011,–
"MA-Ⅱ鼠源抗TSLP单克隆抗体 (murine IgG1/Ck) (antibody, V domains shown) VH: QVKLQQSGAELVKPGASVKMSCKASGYTFTTYWMHWVKQRPGQGLEWIGVIDPSDSYITYNQKFKGKATLTVDTSSSTAYMQLSSLTSEDSAVYYCTRSLDGYFDYWGQGTLVTVSA VL: DIVLTQSPASLSASVGETVTITCRASENIYSYLAWYQQKQGKSPQLLVYNAKTLAEGVPSRFSGSGSGTQFSLKINSLQPEDFGSYYCQHHYGTPWTFGGGTKLEIKA",–,–,15.6,0.00204,–

# The next lines start with the values.
binding result (鼠TSLP-His),EC50 (猴TSLP-His (食蟹猴TSLP)) [µg/mL],IC50 (人TSLP-His [1]) [µg/mL],EC50 [2] [µg/mL],EC50 (人TSLP-His [3]) [µg/mL],Binder
no binding (tested: 16μg/ml),0.0508,–,–,–,"人源化抗TSLP单克隆抗体HA-Ⅳ (antibody, human IgG1, kappa, L234A L235A, Humanized from MA-Ⅰ) heavy: not shown light: DIVMTQSPSSLSASVGDRVTITCRASENIYSYLAWYQQKPGKAPKLLVYNARTLAEGVPSRFSGSGSGTDFTLTISSLQPEDFATYYCQHHYGTPWTFGGGTKVEIKRTVAAPSVFIFPPSDEQLKSGTASVVCLLNNFYPREAKVQWKVDNALQSGNSQESVTEQDSKDSTYSLSSTLTLSKADYEKHKVYACEVTHQGLSSPVTKSFNRGEC"
no binding (tested: 16μg/ml),0.0892,–,–,–,"人源化抗TSLP单克隆抗体HA-Ⅲ (antibody, human IgG1, kappa, L234A L235A, Humanized from MA-Ⅰ) heavy: not shown light: DIQMTQSPSSLSASVGDRVTITCRASENIYSYLAWYQQKPGKAPKLLVYNARTLAEGVPSRFSGSGSGTDFTLTISSLQPEDFATYYCQHHYGTPWTFGGGTKVEIKRTVAAPSVFIFPPSDEQLKSGTASVVCLLNNFYPREAKVQWKVDNALQSGNSQESVTEQDSKDSTYSLSSTLTLSKADYEKHKVYACEVTHQGLSSPVTKSFNRGEC"
no binding (tested: 16μg/ml),0.0273,–,–,–,"人源化抗TSLP单克隆抗体HA-Ⅰ (antibody, human IgG1, kappa, L234A L235A, V domains shown, Humanized from MA-Ⅰ; also called HA-1) VH: QVQLVQSGAEVKKPGASVKVSCKASGYTFTSYWMHWVRQAPGQGLEWIGLIDPSDSDTTYNQKFKGRATLTVDTSTSTAYMELSSLRSEDTAVYYCSRSLDGYFDHWGQGTLVTVSS VL: DIVMTQSPSSLSASVGDRVTITCRASENIYSYLAWYQQKPGKSPKLLVYNARTLAEGVPSRFSGSGSGTDFTLTISSLQPEDFATYYCQHHYGTPWTFGGGTKVEIKR"
–,–,–,–,0.0131,"嵌合抗体CA-Ⅰ (antibody, human IgG1, kappa, L234A L235A, also called chimeric antibody CA-I) heavy: not shown light: DIVMTQSPASLSASVGETVTITCRASENIYSYLAWYQQKQGKSPQLLVYNARTLAEGVPSRFSGSGSGTQFSLKINSLQPEDFGSFYCQHHYGTPWTFGGGTKLEIKRTVAAPSVFIFPPSDEQLKSGTASVVCLLNNFYPREAKVQWKVDNALQSGNSQESVTEQDSKDSTYSLSSTLTLSKADYEKHKVYACEVTHQGLSSPVTKSFNRGEC"
